Reference: article PMC8203498

Biological target: recombinant human protease-activated receptor 1 with GST tag (GST-PAR1) (human) (UniProt P25116)
Test: SPR; BIAcore X100; GST-PAR1 (10 ug/mL) captured on anti-GST antibody immobilised on a CM5 chip (about 854 RU); running buffer 50 mM Hepes pH 7.0, 0.01% CHS, 0.1% CHAPS, 0.33 mM DOPC:DOPS; captured GST as blank; analytes injected at 125 to 1000 nM, 30 uL/min; single site model

B1: F1 peptide (p17 N-terminal sequence, aa 2 to 21) (peptide)
peptide: GARASVLSGGELDRWEKIRL
Question: B1 was tested. Which Kd did it give?
Answer: 46 nM
